Reference: patent publication US20130101571A9, “ANTIDOTES FOR NITROBENZODIAZEPINES” (Academia Sinica, priority 2011, published 2013)
Changes are numbered by the printed parent chain. Names and notes keep the numbering of the source. “Also recorded” adds a separate entry of the source.

Legend:
[1] = test system: nfsb-wt and nfsb-n71s/f124w-transformed E. coli BL21(DE3); test: Disk assay for FZ sensitivity (disk diffusion, zones of inhibition); format: cell-based; conditions: E. coli expressing wild-type enzyme or N71S/F124W mutant; dosage up to 400 μg; 24 hrs
Description: LB plates were uniformly streaked with 0.1 ml of bacterial cell suspensions having an OD600 value of 0.8. Sterile 7 mm filter paper disks saturated with 7 μl of each chemical, including FZ alone, metronidazole (MTZ) alone, and a combination of FZ and MTZ at a ratio of 1/1 by weight, in the amounts indicated in FIG. 4 were placed on the plates. The cells were incubated for 24 hrs before the zones of inhibition were measured.^22

FZ-induced hypnosis = test: Sleep-time (anti-FZ hypnosis) study in mice; format: in vivo, Balb/c mice; conditions: for effect on sleep-time in treated mice (in words): FZ-treated Balb/c mice, FIG. 5A
Description: Male Balb/c mice were purchased from the Animal Center, College of Medicine, National Taiwan University (NTUMC), and were housed in the air-conditioned animal quarters on a 12-h light/dark cycle (temperature 23-25° C.). The animals had free access to water and rodent laboratory chow (Purina Mills Inc.) with the experimental procedures being approved by the Institutional Care and Use Committee at NTUMC.
A sleep-time study in mice was started at the age of seven weeks (body weight ranged from 17.6-19.2 g) following experimental procedures modified from previous studies.^23 Briefly, mice were divided into three groups (at least 4 mice per group) and injected i.p. with 2 mg/kg body weight of FZ from the stock solution (0.4 mg/ml in corn oil). One minute later, mice in Group I, Group II, and Group III were injected i.v. with a vehicle control, 1 mg/ml of wild-type NfsB enzyme (dissolved in 100 mM potassium phosphate buffer, pH 7.4), and 1 mg/ml of the N71S/F124W mutant enzymes (also dissolved in 100 mM potassium phosphate buffer, pH 7.4), respectively, via the tail lateral veins of the FZ-treated mice. The ability of the treated mice to stand on a stainless steel laboratory holder was examined at various time points. A mouse was characterized as losing the reflex ability if it could not stand on the holder for 10 seconds; A mouse was defined as having regained the reflex ability if it could stand on the holder for at least 10 seconds. The time between losing and regaining the reflex ability was defined as sleep-time and recorded for each group.

[2] = NfsB in mice serum by direct competitive ELISA; conditions: 24 hours after the injection
Description: The ELISA assay used in this study was a modified version of a previously described method.^24 Briefly, 96-well microtitre plates were coated with 100 μL of anti-NfsB antibody solution (4 μg/ml in PBS; 13) overnight at 4° C., then washed with PBS containing 0.05% Tween 20 (PBST) in triplicate, then incubated with a blocking buffer containing PBST and 1% BSA. NfsB standards (containing 40 μl sera of untreated mice), or samples (containing 40 μl sera from treated mice collected 1, 3, 6, 12, and 24 hours after the treatment) were placed in the above-noted blocking buffer (60 μL) and added to the wells, which were incubated overnight at 4° C. Enzyme tracer solution (100 μl 6×His mAb/HRP, 1:10,000 in PBS) were added to the wells and incubated at 37° C. for 30 min Subsequently, the wells were washed and TMB substrate solution was added (100 μl). After incubation for 15 min at room temperature, a sulfuric acid solution (2N, 50 μl) was added to stop color development. The absorbance was measured at 450 nm. […] NfsB concentration in the sera samples of the treated groups were calculated based on the standard curve.

[3] = Kinetic study monitoring the rate of FZ disappearance (standard nitroreductase assay of E. coli NfsB); format: biochemical; conditions: aerobic; for Km / Vmax: FZ 4-256 μM, linear plot; for Km / Vmax / Specific activity / Specific activity relative to wild type: NADPH 2 mM; for Specific activity / Specific activity relative to wild type: against FZ
Description: A kinetic study was carried out by monitoring the rate of FZ disappearance. FZ (4-256 μM) was incubated with purified NfsB proteins (10 μg) under the aerobic conditions described above for 2 h in the presence of NADPH at a fixed concentration of 2 mM.
Data were analyzed and calculated via linear plot (13). The amounts of FZ were obtained via the standard nitroreductase assay of E. coli NfsB in the presence of a fixed concentration of cofactor NADPH (2 mM).

[4] = 7AFZ production from FZ by purified NfsB proteins (HPLC); format: biochemical; conditions: for 7AFZ formation: FZ 64 μM, purified NfsB protein 10 μg, NADPH 2 mM, 2 h at 37° C., mean±S.D. from three incubations; for production of 7AFZ compared to the wild-type enzyme (in words): anaerobic conditions, FIG. 2B
Description: Production of 7AFZ was performed under both aerobic or anaerobic conditions. For anaerobic incubation, nitrogen was inlet into an anaerobic incubator (Biotrace). The reaction mixture consisted of FZ (64 μM), purified NfsB proteins (10 μg), MgCl2 (3.3 mM), and NADPH (2 mM) in 100 mM potassium phosphate buffer (pH 7.4). After incubation for 2 h at 37° C., the reaction was terminated by the addition of a methanol solution (200 μl) containing bromazepam (1 μg/mL), which acted as an internal control. The reaction products were extracted via sonication and analyzed by HPLC at 240 nm with a procedure described previously.^13 The detection limit for 7AFZ or FZ was less than 3-5 ng with 83-86% of recovery.

## Cc1ncc([N+](=O)[O-])n1CCO [Metronidazole, metronidazole]
[1]
  inhibitory effect (zones of inhibition) on E. coli cells: dose-dependent

## CN1C(=O)CN=C(c2ccccc2F)c2cc([N+](=O)[O-])ccc21 [FZ, flunitrazepam]
[1]
  inhibitory effect (zones of inhibition) on E. coli cells: neither exhibited toxicity nor increased MTZ toxicity; also recorded: did not show any inhibitory effect

B1: Wild type: Wild-type E. coli type I nitroreductase NfsB (NP-415110; SEQ ID NO:1), His-tagged recombinant protein (protein)
chain: MDIISVALKRHSTKAFDASKKLTPEQAEQIKTLLQYSPSSTNSQPWHFIVASTEEGKARVAKSAAGNYVFNERKMLDASHVVVFCAKTAMDDVWLKLVVDQEDADGRFATPEAKAANDKGRKFFADMHRKDLHDDAEWMAKQVYLNVGNFLLGVAALGLDAVPIEGFDAAILDAEFGLKEKGYTSLVVVPVGHHSVEDFNATLPKSRLPQNITLTEV
modifications: His tag; E. coli
FZ-induced hypnosis
  effect on sleep-time in treated mice (in words): significantly reduced the sleep-time
[2]
  enzyme remaining in the serum: 30%
[3]
  Km: 71.4 µM
  Vmax: 1.89 µM/min
  Specific activity: 82.9 nmol/min/mg protein
  Specific activity relative to wild type: 1.0 fold
[4]; aerobic
  7AFZ formation: 29.52 ± 6.6 ng
[4]; anaerobic
  7AFZ formation: 51.85 ± 2.19 ng

B2: F70H (protein)
chain: B1 chain with F70H
[4]
  production of 7AFZ compared to the wild-type enzyme (in words): higher activity

B3: F124H (protein)
chain: B1 chain with F124H
[4]
  production of 7AFZ compared to the wild-type enzyme (in words): significantly increased

B4: S40G (protein)
chain: B1 chain with S40G
[4]
  production of 7AFZ compared to the wild-type enzyme (in words): higher activity

B5: Y68G (protein)
chain: B1 chain with Y68G
[4]
  production of 7AFZ compared to the wild-type enzyme (in words): significantly increased

B6: N71S/F124W: Double mutant N71S/F124W of E. coli type I nitroreductase NfsB (protein)
chain: B1 chain with N71S, F124W
FZ-induced hypnosis
  effect on sleep-time in treated mice (in words): significantly reduced the sleep-time
FZ-induced hypnosis; FZ-treated mice
  decrease of sleeping time compared to the vehicle group: 50%
FZ-induced hypnosis; FZ-treated mice, enzyme 1 mg/ml i.v. one minute after FZ
  sleeping time: 138 ± 22 min
[3]
  Km: 111 µM
  Vmax: 3.13 µM/min
  Vmax relative to wild-type enzyme: 1.7 fold
  Specific activity: 195.5 nmol/min/mg protein
  Specific activity relative to wild type: 2.4 fold
[4]; aerobic
  7AFZ formation relative to wild-type enzyme: 11.77 fold
  7AFZ formation: 347.56 ± 16.59 ng
[4]; anaerobic
  7AFZ formation relative to wild-type enzyme: 5.6 fold
  7AFZ formation: 290.52 ± 18.38 ng

B7: N71S (protein)
chain: B1 chain with N71S
[4]; anaerobic
  7AFZ formation relative to wild-type enzyme: 2.4 fold
  7AFZ formation: 126 ± 2.06 ng
[4]
  production of 7AFZ compared to the wild-type enzyme (in words): significantly increased

B8: F124Y (protein)
chain: B1 chain with F124Y
[4]
  production of 7AFZ compared to the wild-type enzyme (in words): higher activity

B9: T41L (protein)
chain: B1 chain with T41L
[4]
  production of 7AFZ compared to the wild-type enzyme (in words): significantly increased

B10: F124W (protein)
chain: B1 chain with F124W
[4]; anaerobic
  7AFZ formation relative to wild-type enzyme: 2.7 fold
  7AFZ formation: 141.88 ± 5.28 ng
[4]
  production of 7AFZ compared to the wild-type enzyme (in words): significantly increased

B11: F70Y (protein)
chain: B1 chain with F70Y
[4]
  production of 7AFZ compared to the wild-type enzyme (in words): higher activity
